For experiment [1], the target named is T1, recombinant human CD40 (human, UniProt P25942 21-193).
T1 construct: Soluble analyte in SPR; also called CD40 antigen
The experiment can be described thus: SPR (Biacore T100), antibody captured on Protein A, CD40 as analyte, 25 °C, 1:1 model. From the text: A typical binding analysis cycle consisted of three steps: (i) capture of the antibody via ProteinA immobilized on the chip surface, (ii) binding of CD40 antigen to the captured anti-CD40 antibody, and (iii) regeneration of the ProteinA surface. To determine the kinetic rate constants of the antigen-antibody binding interactions, binding data were processed, double referenced with responses from blank injections. The binding curves were fitted locally using the 1:1 interaction model of the Biacore T100 Evaluation software to determine kinetic rate constants. The value for the equilibrium dissociation constant (KD) was calculated as the ratio of the rate constants kd/ka. All binding measurements were performed in two independent experiments.
A general note: SPR reads the build-up and loss of mass on a sensor chip optically.

Experiment [2] deals with T2, human FcγRIIIA 158F extracellular domain (human, UniProt P08637 17-199, site directed biotinylated with BirA (Avi tag)).
T2 construct: range 17-199; not shown: 4-amino acid purification tag (4APP; Novartis)
T2 sequence (P08637 other isoform, or with tags, fused parts or gaps): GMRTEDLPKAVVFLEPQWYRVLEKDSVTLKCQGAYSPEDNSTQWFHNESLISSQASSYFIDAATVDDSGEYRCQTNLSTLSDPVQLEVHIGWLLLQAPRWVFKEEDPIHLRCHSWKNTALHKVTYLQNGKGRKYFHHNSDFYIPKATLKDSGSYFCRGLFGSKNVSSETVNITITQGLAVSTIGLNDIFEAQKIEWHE
The experiment can be described thus: SPR (T100), biotinylated receptor on streptavidin chip, equilibrium binding, 1:1 model. From the text:
(§1) Extracellular domains of human FcγRIIIA tagged with a 4-amino acid purification tag (4APP; Novartis) and an Avi biotinylation tag ([…]; Avidity) were synthesized by Geneart: human FcγRIIIA (CD16a) 158V (Uniprot: P08637, 17-199), human FcγRIIIA 158F (Uniprot: P08637, 17-199), expressed in HEK293 cells and purified with anti-4APP affinity chromatography. Receptors were site directed biotinylated with BirA (Avidity), bound to streptavidin sensor chips (General Electric), and the equilibrium-binding levels of the different Abs were analyzed by surface plasmon resonance (T100, General Electric) as described (Warncke et al. 2012). Equilibrium dissociation constants (KD) were calculated by a 1:1 model.

Experiment [3] addresses T3, human CD40 on cells (CD20+ B cells of whole blood/PBMCs, tonsil B cells, moDCs, RI-1 B cell line) (human, UniProt P25942 21-277). The experiment can be described thus: cell-based or functional assay.
The target of experiment [4] is T3, human CD40 on cells (CD20+ B cells of …). The experiment can be described thus: cell-based or functional assay. The source holds these as a separate data set.
In experiment [5] the target is T4, rhesus monkey CD40 on CD20+ B cells (rhesus, UniProt F6SNI1 21-278). The experiment can be described thus: cell-based or functional assay.
Experiment [6] addresses T5, cynomolgus monkey CD40 on CD20+ B cells (cynomolgus, UniProt G7PG38 21-278). The experiment can be described thus: cell-based or functional assay.
In experiment [7] the target is T3, human CD40 on cells (CD20+ B cells of …). The experiment can be described thus: cell-based or functional assay. The source holds these as a separate data set.
Experiment [8] has as its target T6, human FcγRIIIA (CD16a) 158V extracellular domain (human, UniProt P08637 17-199, site directed biotinylated with BirA (Avi tag)).
T6 construct: range 17-199; 158 is the usual mature numbering of the V/F allotype; also called Human FcγRIIIA 158V; not shown: 4-amino acid purification tag (4APP; Novartis)
The experiment can be described thus: SPR, biotinylated receptor on streptavidin chip, equilibrium binding.
Excerpt: as §1

Experiment [9] concerns the target T2, human FcγRIIIA 158F extracellular domain. Described as above.
Excerpt: as §1

Experiment [10] deals with T3, human CD40 on cells (CD20+ B cells of …). The experiment can be described thus: flow cytometry, CD40 occupancy by CFZ533 (MFI EC50 on CD20+ cells), human, n = 4. (A flow cytometer gives signals particle by particle.)
The target of experiment [11] is T4, rhesus monkey CD40 on CD20+ B cells. The experiment can be described thus: flow cytometry, CD40 occupancy by CFZ533 (MFI EC50 on CD20+ cells), rhesus, n = 6.
For experiment [12], the target named is T5, cynomolgus monkey CD40 on CD20+ B cells. The experiment can be described thus: flow cytometry, CD40 occupancy by CFZ533 (MFI EC50 on CD20+ cells), cynomolgus, n = 4.
Experiment [13] concerns the target T3, human CD40 on cells (CD20+ B cells of …). The experiment can be described thus: flow cytometry, CD40 occupancy by CFZ533 (MFI EC50 on CD20+ cells), human, n = 4; human CD20+ cells, n = 4.

“And” between values parts separate entries of the source, which are not always exact repeats. Equal entries are not always repeated.

T3 sequence (P25942 21-277 limits assumed): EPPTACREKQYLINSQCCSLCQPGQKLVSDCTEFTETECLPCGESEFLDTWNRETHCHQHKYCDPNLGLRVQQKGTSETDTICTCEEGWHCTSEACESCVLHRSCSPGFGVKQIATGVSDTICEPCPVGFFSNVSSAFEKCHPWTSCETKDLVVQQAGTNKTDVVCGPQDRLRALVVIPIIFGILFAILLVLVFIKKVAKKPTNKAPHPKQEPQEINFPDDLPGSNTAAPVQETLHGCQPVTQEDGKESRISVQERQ
T1 sequence (P25942 21-193 limits assumed): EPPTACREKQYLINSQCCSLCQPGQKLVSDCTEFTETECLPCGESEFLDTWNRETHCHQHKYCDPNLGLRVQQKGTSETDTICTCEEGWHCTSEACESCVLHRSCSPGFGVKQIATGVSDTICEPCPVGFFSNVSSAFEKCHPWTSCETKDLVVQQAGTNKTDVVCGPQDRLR
T6 sequence (P08637 other isoform, or with tags, fused parts or gaps): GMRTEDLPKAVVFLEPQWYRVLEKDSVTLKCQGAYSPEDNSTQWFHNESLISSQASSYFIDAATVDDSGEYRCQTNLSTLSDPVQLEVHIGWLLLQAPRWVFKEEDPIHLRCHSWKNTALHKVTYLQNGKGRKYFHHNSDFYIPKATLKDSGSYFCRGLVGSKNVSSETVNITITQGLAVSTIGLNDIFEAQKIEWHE

B1: HCD122 (wild-type IgG1 version of CFZ533) (antibody)
heavy: not shown
light: DIVMTQSPLSLTVTPGEPASISCRSSQSLLYSNGYNYLDWYLQKPGQSPQVLISLGSNRASGVPDRFSGSGSGTDFTLKISRVEAEDVGVYYCMQARQTPFTFGPGTKVDIRRTVAAPSVFIFPPSDEQLKSGTASVVCLLNNFYPREAKVQWKVDNALQSGNSQESVTEQDSKDSTYSLSSTLTLSKADYEKHKVYACEVTHQGLSSPVTKSFNRGEC
notes: it calls it the parental antibody and the wild-type IgG1 version of CFZ533 (N297A IgG1); It is built here as the CFZ533 chains with Asn in place of the Ala of N297A; 297 is a constant-region number; also called parental antibody
For B1, in experiment [1], the Kd was 0.467 nM, the koff came to 0.000126 s⁻¹ and the kon came out at 284000 M⁻¹ s⁻¹. Moreover, the Ka in experiment [2] worked out at 699000 M⁻¹.

B2: CFZ533 (antibody, human IgG1, kappa, N297A)
heavy: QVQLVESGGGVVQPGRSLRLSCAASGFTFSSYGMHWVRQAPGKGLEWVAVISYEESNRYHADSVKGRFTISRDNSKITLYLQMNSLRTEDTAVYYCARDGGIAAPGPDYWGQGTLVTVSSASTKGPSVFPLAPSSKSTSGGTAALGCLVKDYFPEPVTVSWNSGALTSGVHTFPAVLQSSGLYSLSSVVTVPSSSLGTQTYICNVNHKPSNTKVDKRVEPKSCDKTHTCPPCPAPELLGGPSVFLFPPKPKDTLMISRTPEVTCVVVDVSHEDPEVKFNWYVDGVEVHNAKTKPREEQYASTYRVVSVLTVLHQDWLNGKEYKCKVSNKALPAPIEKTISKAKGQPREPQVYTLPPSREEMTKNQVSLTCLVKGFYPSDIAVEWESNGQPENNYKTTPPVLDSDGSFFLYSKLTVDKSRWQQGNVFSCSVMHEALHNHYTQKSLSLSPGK
light: DIVMTQSPLSLTVTPGEPASISCRSSQSLLYSNGYNYLDWYLQKPGQSPQVLISLGSNRASGVPDRFSGSGSGTDFTLKISRVEAEDVGVYYCMQARQTPFTFGPGTKVDIRRTVAAPSVFIFPPSDEQLKSGTASVVCLLNNFYPREAKVQWKVDNALQSGNSQESVTEQDSKDSTYSLSSTLTLSKADYEKHKVYACEVTHQGLSSPVTKSFNRGEC
notes: In the receptor occupancy and internalisation assays it was labelled with AlexaFluor 488; also called mAb1; iscalimab
For B2, in experiment [3], the “IC50, rCD154-induced TNF production by primary monocyte-derived dendritic cells (moDCs)” value is 0.04 µg/ml and 0.27 nM. For the same molecule, the “IC50, rCD154-induced proliferation of human whole blood cultures” value in experiment [3] was 0.024 µg/ml and 0.16 nM. The “IC50, rCD154-induced proliferation of purified tonsillar B cells” value in [3] was 0.47 nM and 0.071 µg/ml. The “Inhibition of rCD154-induced proliferation (IC50 PBMCs)” value in [4] turned out to be 0.017 µg/mL; in experiment [5], 0.026 µg/mL; in experiment [6], 0.01 µg/mL. In experiment [7], the “IC50 (read off the curve): rCD154-induced CD69 expression on CD20pos B cells, human whole blood” value was about 0.1 µg/mL. The binding result in experiment [8] and in experiment [9] was “no binding” each time. Further, the EC50 in [10] is 0.22 µg/mL; in [11], 0.22 µg/mL; in experiment [12], 0.2 µg/mL; in experiment [13], 1.49 nM. The dissociation constant Kd in experiment [1] amounted to 0.305 nM. The koff in experiment [1] was determined as 9.3e-05 s⁻¹. Also, in [1], the kon stood at 313000 M⁻¹ s⁻¹.

A word on the Kd: it is the equilibrium constant for the complex coming apart. What is called koff is the first-order rate constant of dissociation. As usually defined, the kon is the rate constant with which the complex forms. In general, EC50 refers to the concentration at which the effect is half-maximal.

These data come from patent publication US20210079107A1 (Novartis, published 2021).
